{"source": "paper PMC11871449", "biological_target": "TDP-43 RRMs (RRM1-RRM2) (UniProt Q13148)", "sequence (Q13148 101-269)": "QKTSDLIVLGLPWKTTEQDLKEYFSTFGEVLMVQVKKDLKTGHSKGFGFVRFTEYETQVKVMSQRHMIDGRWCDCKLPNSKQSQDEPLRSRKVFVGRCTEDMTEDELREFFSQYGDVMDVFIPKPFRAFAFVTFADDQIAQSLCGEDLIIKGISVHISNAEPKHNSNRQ", "experiment": "EMSA (multiplexed)", "details": "20 mM Tris-HCl pH 7.5, 150 mM KCl, 5 mM MgCl2, 10% glycerol, 30 min, room temperature, 2 nM each labeled RNA (mEMSA), 5.5% TBE gel (4% for competition)", "key": {"[1]": {"details": "5 mM Mg2+, fluorophore-UTP incorporated during transcription (labeled form)"}, "[2]": {"details": "5 mM Mg2+, fluorophore-UTP incorporated during transcription"}}}
{"sequence": "GAUUGAUGGUGGUGCCGAGGCAUGAAAGGCUAGUAUGAGCGAGAAAAGGAGAGAGCGCGUGCAGAGACUUGGUGGUGCAUAAUGGAUAUUUUUUAACUUGGCGAGAUGUGUCUCUCAAUCCUGUGGCUUUGGUGAGAGAGUGUGCG [TARDBP[2140-2283] 3'UTR]", "values": [{"measurement": "Kd", "setting": "[1]", "result": 272, "unit": "nM"}]}
{"sequence": "UGGCUAUCCUUUAAUGAUGCGUGUGGAAUGUGUGUGUGUGCUCAGGCAAUUAUUUUGCUAAGAAUGUGAAUUCAAGUGCAGCUCAAUACUAGCUUCAGUAUAAAAACUGUACAGAUUUUUGUAUAGCUGAUAAGAUUCUCUGUAGAGAAAAUACUUUUAAAAAAUGCAGGUUGUAGCUUUUUGAUGGGCUACUCAUACAGUUAGAUUUUACAGCUUCUGAUGUUGAAUGUUCCUAAAUAUUUAAUGGUUUUUUUAAUUUCUUGUGUAUGGUAGCACAGCAAAGCUU [HMGB2[739-1022] 3'UTR]", "values": [{"measurement": "Kd", "setting": "[2]", "result": 148, "unit": "nM"}]}
{"sequence": "AACACCAUGCUGGUUAUUUUGGCGGCUGUAGUUGUGGGGGGAUGUGUGUGUGCACGUGUGUGUGUGUGUGUGUGUGUGUGUGUGUGUGUGUGUUCUGUGACCUCCUGUCCCCAUGGUACGUCCCACCCUGUCCCCAGAUCCCCUAUUCCCUCCACAAUAACAGAAACACUCCCAGGGACUCUGGGGAGAGGCUGAGGACAAAUACCUGCUGUCACUCCAGAGGACAUUUUUUUUAGCAAUAAAAUUGAG [SLC1A5[2620-2869] 3'UTR]", "values": [{"measurement": "Kd", "setting": "[2]", "result": 82, "unit": "nM"}]}
{"sequence": "GCGAGGAGCCUUUCAUCCGAAGGCGGGACGAUGCCGGAUAAUCGGCAGCCGAGGAACCGGCAGCCGAGGAUCCGCUCCGGGAACGAGCCUCGUUCCGCGCCCGCCAUGGAACCGGAUGGUCGCGGUGCCUGGGCCCACAGUCGCGCCGCGCUCGACCGCCUGGAGAAGCUGCUGCGCUGCUCGCGUUGUACUAACAUUCUGAGAGAGCC [BARD1[86-310] negative control]", "values": [{"measurement": "Kd", "setting": "[1]", "result": 1790, "unit": "nM"}]}
{"sequence": "GUGGGCUUUUCCAUUGUCCCCCUGGCCUCCAGGCUCCUCCUCUGCCUCUCCAUGGAGUGGGUGGGGAGGUGGUGGGGGCCGGCGUCCCCUGCGUGUGUGUGUGUGUGUGUGUGUGUGUGUGGAUGUAUUGACCUGUGUUUCCCAAGACAGCAGGUGCCACGGCCCGCCCCGCCUGCCAGCCCGAAUUCCCGUUCUCCUGUGUCUACUAACAAGGACGGAUCCAGCU [CSNK1E[2054-2264] 3'UTR]", "values": [{"measurement": "Kd", "setting": "[2]", "result": 101, "unit": "nM"}]}
{"sequence": "AUCCCGCUGCUAUUAGAAUGCAUUGUGAAACGACUGGAGUAUGAUUAAAAGUUGUGUUCCCCAAUGCUUGGAGUAGUGAUUGUUGAAGGAAAAAAUCCAGCUGAGUGAUAAAGGCUGAGUGUUGAGGAAAUUUCUGCAGUUUUAAGCAGUCGUAUUUGUGAUUGAAGCUGAGUACAUUUUGCUGGUGUAUUUUUAGGUAAAAUGCUUUUUGUUCAUUUCUGGUGGUGGGAGGGGACUGAAGCCUUUAGUCUUUUCCAGAUGCAACCUUAAAAUCAGUGACAAGAAACAUUCCAAACAAGC [MALAT1[6638-6938]]", "values": [{"measurement": "Kd", "setting": "fluorophore-UTP incorporated during transcription", "result": 127, "unit": "nM"}]}
